Data published in PMC5585275.

Molecular target: pre-translocation (PRE) complex of the E. coli 70S ribosome (E. coli) (UniProt P0A7K2)
Assay: stopped-flow fluorescence and FRET kinetics, global fit by numerical integration; PRE complexes (0.05 uM, six fluorescence reporters) mixed with saturating EF-G (4-5 uM), 1 mM GTP, 200 uM fusidic acid; buffer A (50 mM Tris-HCl pH 7.5, 70 mM NH4Cl, 30 mM KCl, 7 mM MgCl2), 37 °C; 5-step model, k-1/k1 constrained to 65/55 uM; KinTek Explorer

kon: 4.2e+07 M⁻¹ s⁻¹
Substance: elongation factor G (from UniProt P0A6M8 1-704) (enzyme)
